In brackets after ≈: the same amount, converted by molar mass. Read-outs that look alike come from different tables or passages of the source.

We go through five molecules from US12630596B2, “Engineered lysin-human defensin protein” (priority 2018, dated 2026).

Series [1] deals with C. difficile R20291. As to the kind of experiment: Minimum inhibitory concentration (MIC) on strain R20291. It counts as cell-based, Clostridium difficile. The following applies: strain R20291, BHIS, 37° C. for 18 h. As to the method: The minimum inhibitory concentrations (MICs) of LHD and LCD were determined using the protocol of Wiegand, et al. (Wiegand, Hilpert et al. 2008) with some modifications, as described previously (Gilmer, Schmitz et al. 2017). In brief, strain R20291 was grown in BHIS and adjusted to ˜5×10^5 cells/ml in BHIS, and distributed into the wells of a 96-well round bottom polystyrene microtiter plate. In the wells of each row, either sterile-filtered lysin or control vehicle (metronidazole, vancomycin and fidaxomicin) was added with a final concertation varied from 200 μg/ml to 0.19 μg/ml (2-fold dilution) (Wiegand, Hilpert et al. 2008). The plates were incubated at 37° C. for 18 h. The MIC was “the lowest or minimum concentration of lysin or control vehicle that prevented the formation of a cell pellet (a measure of growth) on the bottom of the wells” (Gilmer, Schmitz et al. 2017). The MICs were also confirmed by measuring the OD600 values using a Bio-Rad plate reader (Bio-Rad, Hercules, CA).

The target of series [2] is Glucosyltransferase (GT) activity of TcdB (Clostridioides difficile, UniProt P18177). As to the kind of experiment: TcdB glucosyltransferase activity on Rac1 in CT26 cytosolic fraction. It counts as biochemical, Clostridium difficile. The following applies: TcdB 15 ng/ml, 750 ng/ml, 1 hr. As to the method:
(§1) (FIG. 5A) LHD inhibits TcdB-induced cell rounding. CT26 cells in 12-well plates were exposed to HD or LHD at 750 ng/ml (50 times of TcdB concentration) or nothing for 1 hour, followed by exposure to TcdB at 15 ng/ml for 5 hours. (FIG. 5B) Western-blot analysis of non-glucosylated Rac1 in CT26 cells treated with TcdB in the presence or absence of LHD or HD. TcdB glucosylates Rac1 in cells, serving as a readout for toxin cytotoxicity. Quantitation of Rac1 levels in Western-blot was shown in low panel (*p<0.05). (FIG. 5C) CT26 cells were lysed, and the cytosolic fraction was exposed to TcdB (15 ng/ml) with or without HD at 750 ng/ml (50 times of TcdB concentration) or LHD at 1500 ng/ml (same molecular concentration as HD) or nothing for 1 h followed by Western Blot analysis using a monoclonal antibody that only recognizes non-glucosylated Rac1. β-actin was used as an equal loading control. Quantitation of Rac1 levels in Western-blot was shown in low panel (****p<0.0001).
Glucosyltransferase (GT) activity of TcdB was also measured by its ability to glucosylate Rho GTPase Rac1 in cell lysates (Zhang, Shi et al. 2013). CT26 cell pellets were resuspended in a reaction buffer (50 mM HEPES, pH 7.5, 100 mM KCl, 1 mM MnCl2 and 2 mM MgCl2), and lysed by passing through a 30 G needle for 40 times. […]

Series [3] deals with Clostridium difficile toxin B (TcdB) (Clostridioides difficile, UniProt P18177). As to the kind of experiment: Inhibition of TcdB cytotoxicity in CT26 cells (cell rounding, non-glucosylated Rac1 Western blot). The class given is cell-based. The conditions noted are these: pre-treatment 750 ng/ml 1 hr, TcdB 15 ng/ml 5 hrs. As to the method:
as §1
It was reported that the human defensin protein HD5 (HD) could inhibit TcdB (Giesemann, Guttenberg et al. 2008). Therefore, we evaluated the inhibitory effects of LHD and HD on TcdB. Briefly, CT26 cells in 12-well plates were exposed to LHD, synthesized HD or PBS at 750 ng/ml (50 times of TcdB concentration) for 1 hr, followed by exposure to TcdB at 15 ng/ml for 5 hrs. Total cell lysates were subjected to 12% SDS-PAGE separation, and transferred onto a Nylon membrane. Following blocking for 1 hr at room temperature with 5% skim milk, the membrane was incubated overnight at 4° C. with RAC1 antibody (1:1000, Cat: 610650, BD Biosciences) and β-actin antibody (1:10000, Cat: A5441, Sigma-Aldrich).

Series [4] relates to C. difficile R20291. As to the kind of experiment: Optical drop assay, lytic activity on C. difficile R20291. The class given is cell-based, Clostridium difficile. The conditions noted are these: strain R20291, 200 μg/ml. On the procedure: (§2) The lytic activity of proteins LHD and LCD against C. difficile strains was determined as previously described (Wang, Euler et al. 2015). Briefly, C. difficile strains were cultured in an anaerobic chamber to mid-log phase, and the bacterial pellets were harvested by centrifugation at 3000×g for 5 min. Pellets were washed twice and re-suspended in sterilized ddH2O, and resuspensions were not buffered. Prior to tests, bacterial optical density at 600 nm (OD600) was adjusted to approximately 0.8-1.0. Proteins LHD and LCD were added into the cell re-suspension with the final concentration of 200 μg/ml. The drop in OD600 at 37° C. was measured every 10 minutes for 60 min˜90 min. Bacterial re-suspension with sterilized water was also set as a control. Three repeats were included in each test.

For series [5], the system named is C. difficile strains M120, VPI 10463, CD630, LC693, 1377. Description: Optical drop assay, lytic activity on other clinical epidemic C. difficile strains. It counts as cell-based, Clostridium difficile. The following applies: different types of clinical epidemic strains, 200 μg/ml.
Description: C. difficile strains R20291 (ribotype 027), M120 (ribotype 078), VPI 10463 (ribotype 087; ATCC 43255), CD630 (ribotype 012), LC693 (ribotype unknown, ST201), and 1377 (ribotype 012) were used in this study. Strains M120 and VPI 10463 were provided by Dr. Joseph A. Sorg from Texas A&M University. Strains R20291 and CD630 were provided by Dr. Abraham L. Sonenshein from Tufts University. Strains 1377 and LC693 were epidemic clinical strains in China (Li, Liu et al. 2015, Peng, Liu et al. 2017).
as §2

The mark [6] stands for this setting: Clostridioides difficile, read-out: MIC.

Sequence of Glucosyltransferase (GT) activity of TcdB (P18177 whole entry): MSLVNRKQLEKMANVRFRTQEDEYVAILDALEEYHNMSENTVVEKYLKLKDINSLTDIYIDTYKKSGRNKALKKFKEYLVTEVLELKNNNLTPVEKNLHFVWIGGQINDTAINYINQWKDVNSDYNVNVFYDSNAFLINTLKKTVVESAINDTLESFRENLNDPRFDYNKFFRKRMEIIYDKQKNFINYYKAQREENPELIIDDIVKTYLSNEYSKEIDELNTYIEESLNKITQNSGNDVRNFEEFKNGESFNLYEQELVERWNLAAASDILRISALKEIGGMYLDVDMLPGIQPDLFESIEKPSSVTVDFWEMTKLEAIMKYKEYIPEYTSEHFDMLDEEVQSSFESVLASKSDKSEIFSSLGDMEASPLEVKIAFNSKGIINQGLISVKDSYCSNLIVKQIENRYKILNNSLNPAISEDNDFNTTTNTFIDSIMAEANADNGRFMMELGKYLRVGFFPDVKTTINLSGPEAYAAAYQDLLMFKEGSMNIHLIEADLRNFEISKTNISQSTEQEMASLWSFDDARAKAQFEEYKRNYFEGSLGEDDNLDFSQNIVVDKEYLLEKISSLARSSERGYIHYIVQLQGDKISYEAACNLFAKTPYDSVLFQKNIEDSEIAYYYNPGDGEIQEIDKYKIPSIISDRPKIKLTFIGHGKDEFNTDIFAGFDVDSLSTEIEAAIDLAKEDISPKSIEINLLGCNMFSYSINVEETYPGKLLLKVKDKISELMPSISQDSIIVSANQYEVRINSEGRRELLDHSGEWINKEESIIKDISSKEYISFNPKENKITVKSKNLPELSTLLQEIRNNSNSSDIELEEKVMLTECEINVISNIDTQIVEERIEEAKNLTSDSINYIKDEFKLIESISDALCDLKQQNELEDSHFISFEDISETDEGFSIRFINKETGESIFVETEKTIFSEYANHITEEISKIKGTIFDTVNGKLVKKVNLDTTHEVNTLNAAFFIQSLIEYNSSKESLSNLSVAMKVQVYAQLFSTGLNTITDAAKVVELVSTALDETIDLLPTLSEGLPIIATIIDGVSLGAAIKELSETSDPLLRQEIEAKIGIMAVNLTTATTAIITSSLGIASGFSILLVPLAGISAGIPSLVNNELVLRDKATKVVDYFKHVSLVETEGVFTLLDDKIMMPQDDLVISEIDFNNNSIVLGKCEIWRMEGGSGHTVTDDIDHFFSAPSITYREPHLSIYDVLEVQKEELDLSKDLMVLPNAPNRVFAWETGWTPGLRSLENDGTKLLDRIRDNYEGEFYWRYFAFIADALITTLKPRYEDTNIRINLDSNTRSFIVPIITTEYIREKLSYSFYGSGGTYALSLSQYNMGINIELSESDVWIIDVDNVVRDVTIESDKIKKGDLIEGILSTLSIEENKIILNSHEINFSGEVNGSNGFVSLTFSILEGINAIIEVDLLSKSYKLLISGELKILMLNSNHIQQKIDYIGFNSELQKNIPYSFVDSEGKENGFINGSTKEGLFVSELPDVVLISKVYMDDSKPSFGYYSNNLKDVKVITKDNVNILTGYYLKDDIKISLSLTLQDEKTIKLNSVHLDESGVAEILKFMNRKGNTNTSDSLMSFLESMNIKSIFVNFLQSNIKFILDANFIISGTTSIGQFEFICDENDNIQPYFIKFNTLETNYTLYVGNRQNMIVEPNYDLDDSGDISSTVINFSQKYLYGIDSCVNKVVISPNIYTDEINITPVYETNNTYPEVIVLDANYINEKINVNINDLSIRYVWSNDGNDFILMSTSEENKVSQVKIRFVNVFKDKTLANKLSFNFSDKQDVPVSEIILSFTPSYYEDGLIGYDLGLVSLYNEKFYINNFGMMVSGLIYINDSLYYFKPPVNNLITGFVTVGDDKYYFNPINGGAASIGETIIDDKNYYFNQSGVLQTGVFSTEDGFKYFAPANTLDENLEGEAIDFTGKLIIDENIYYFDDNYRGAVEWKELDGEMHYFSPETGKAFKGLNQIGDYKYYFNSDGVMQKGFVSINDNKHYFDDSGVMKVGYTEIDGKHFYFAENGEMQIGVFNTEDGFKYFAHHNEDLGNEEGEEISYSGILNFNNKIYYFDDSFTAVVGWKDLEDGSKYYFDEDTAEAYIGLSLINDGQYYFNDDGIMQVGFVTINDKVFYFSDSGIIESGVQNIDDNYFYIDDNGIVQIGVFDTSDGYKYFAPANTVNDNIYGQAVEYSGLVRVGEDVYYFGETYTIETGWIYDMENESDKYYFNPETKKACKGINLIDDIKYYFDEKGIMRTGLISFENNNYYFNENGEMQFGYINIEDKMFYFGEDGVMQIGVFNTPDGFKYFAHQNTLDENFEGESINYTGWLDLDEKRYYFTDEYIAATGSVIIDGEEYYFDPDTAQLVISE
Sequence of Clostridium difficile toxin B (TcdB) (P18177 whole entry): as above

Broadly, the MIC is the smallest concentration in the dilution series that meets the test's criterion for growth inhibition. Consider `CCc1c(Cl)c(O)c(Cl)c(O)c1C(=O)O[C@H]1[C@H](O)[C@H](OC)[C@H](OC/C2=C\C=C\C[C@H](O)/C(C)=C/[C@H](CC)[C@@H](O[C@@H]3OC(C)(C)[C@@H](OC(=O)C(C)C)[C@H](O)[C@@H]3O)/C(C)=C/C(C)=C/C[C@@H]([C@@H](C)O)OC2=O)O[C@@H]1C` [Fidaxomicin, fidaxomicin], for which, in the series with C. difficile R20291 [1] (setting [6]), the MIC is 0.25 µg/mL (≈ 0.236 µM).

Consider `Cc1ncc([N+](=O)[O-])n1CCO` [Metronidazole, metronidazole], for which the MIC with C. difficile R20291 [1] (setting [6]) was 4 µg/mL (≈ 23.4 µM).

Regarding `CN[C@H](CC(C)C)C(=O)N[C@H]1C(=O)N[C@@H](CC(N)=O)C(=O)N[C@H]2C(=O)N[C@H]3C(=O)N[C@H](C(=O)N[C@H](C(=O)O)c4cc(O)cc(O)c4-c4cc3ccc4O)[C@H](O)c3ccc(c(Cl)c3)Oc3cc2cc(c3O[C@@H]2O[C@H](CO)[C@@H](O)[C@H](O)[C@H]2O[C@H]2C[C@](C)(N)[C@H](O)[C@H](C)O2)Oc2ccc(cc2Cl)[C@H]1O` [Vancomycin, vancomycin], the MIC with C. difficile R20291 [1] (setting [6]) was found to be 4 µg/mL (≈ 2.76 µM).

“HD5: Human alpha-defensin 5 peptide (32 aa), synthesized; SEQ ID NO:3 (ATCYCRTGRCATRESLSGVCEISGRLYRLCCR) [reference compound]”: the “glucosyltransferase activity of TcdB” value in series [2] is “significantly inhibited”. Moreover, in series [3], the “cell rounding caused by TcdB” value was “decreased cell rounding” and the “non-glucosylated Rac1 in cells (readout of cytotoxicity of TcdB)” value is recorded as “inhibited the cytotoxicity”. For the same molecule, in the series on C. difficile R20291 [4], the “lytic activity (drop in OD600)” value is “moderate lytic activity”.

B1: LCD: Catalytic domain (179 aa) of the lysin of C. difficile phage phiC2; SEQ ID NO:2; included as a control (protein)
chain: MKICITVGHSILKSGACTSADGVVNEYQYNKSLAPVLADTFRKEGHKVDVIICPEKQFKTKNEEKSYKIPRVNSGGYDLLIELHLNASNGQGKGSEVLYYSNKGLEYATRICDKLGTVFKNRGAKLDKRLYILNSSKPTAVLIESFFCDNKEDYDKAKKLGHEGIAKLIVEGVLNKNIN
notes: Catalytic domain (179 aa) of the lysin of C. difficile phage phiC2; included as a control
Consider B1, for which the “glucosyltransferase activity of TcdB” value in series [2] is recorded as “significantly inhibited”. Moreover, the MIC against C. difficile R20291 [1] is 1.56 µg/mL. In addition, the “lytic activity (drop in OD600)” value (with C. difficile R20291 [4]; in series [5]) was “potent lytic activities” throughout.
